Assay results from publication PMC8261865, “A Structural View on the Stereospecificity of Plant Borneol‐Type Dehydrogenases” (Chemcatchem, 2021).
Values belong to the compound of their own block, whether it stands above or below them.

Key:
AaADH2 = target: T1, AaADH2 (Artemisia annua, UniProt E5DD06); test: spectrophotometric cofactor use; format: biochemical
T1 construct: gene Adh2
T1 sequence (E5DD06 1-265): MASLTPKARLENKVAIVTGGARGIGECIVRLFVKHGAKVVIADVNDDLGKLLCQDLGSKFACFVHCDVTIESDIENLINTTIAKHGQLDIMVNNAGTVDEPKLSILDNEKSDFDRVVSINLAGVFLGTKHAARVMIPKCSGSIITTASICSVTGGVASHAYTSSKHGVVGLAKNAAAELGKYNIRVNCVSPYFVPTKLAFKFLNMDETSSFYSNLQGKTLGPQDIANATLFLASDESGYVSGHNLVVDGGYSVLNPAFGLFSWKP

SrBDH1 = target: T2, SrBDH1 (Salvia rosmarinus, UniProt A0A8K1HPF5); test: X-ray crystal structure of binary complex ([…] Å); format: binding; conditions: NAD+ co-purified with the enzyme; two crystal forms (high salt; PO/OH)
T2 construct: N-terminal His-tag (pET15b), codon-optimised, E. coli BL21(DE3); homotetramer by SEC/MALS
T2 sequence (A0A8K1HPF5 1-270): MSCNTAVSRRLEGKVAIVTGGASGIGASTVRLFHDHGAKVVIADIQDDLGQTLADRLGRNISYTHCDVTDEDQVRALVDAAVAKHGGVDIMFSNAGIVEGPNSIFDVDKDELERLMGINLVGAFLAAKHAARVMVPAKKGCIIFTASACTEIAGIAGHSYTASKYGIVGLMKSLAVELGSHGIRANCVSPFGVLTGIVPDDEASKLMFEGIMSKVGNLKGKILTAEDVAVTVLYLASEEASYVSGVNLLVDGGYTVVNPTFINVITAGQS

[1] = target: Borneol-type dehydrogenase 1 from Salvia rosmarinus (Salvia rosmarinus); test: SEC; HiLoad 16/60 Superdex 200; Tris-HCl 100 mM, 500 mM NaCl, pH 8; 1 mL/min; calibrated with mass standards (44-440 kDa)
[2] = target: Borneol-type dehydrogenase 1 from Salvia rosmarinus (Salvia rosmarinus); test: SEC-MALS; Superdex 200 increase 10/300 with miniDAWN TREOS and refractive index detector; 18 °C
[3] = target: Borneol-type dehydrogenase 1 from Salvia rosmarinus (Salvia rosmarinus); test: crystal structure; sitting-drop vapor diffusion at 18 °C; two conditions: high NaCl (2.7-3.2 M, Bis-Tris pH 5.5-7.2) and pentaerythritol propoxylate (PO/OH, HEPES pH 7.0-7.8); tetramer in both
[4] = target: Borneol-type dehydrogenase 2 from Salvia rosmarinus (Salvia rosmarinus); test: SEC; HiLoad 16/60 Superdex 200; Tris-HCl 100 mM, 500 mM NaCl, pH 8; 1 mL/min; calibrated with mass standards (44-440 kDa)
[5] = target: Borneol-type dehydrogenase 3 from Salvia officinalis (Salvia officinalis L.); test: as above

Compound: NC(=O)c1ccc[n+]([C@@H]2O[C@H](COP(=O)(O)OP(=O)(O)OC[C@H]3O[C@@H](n4cnc5c(N)ncnc54)[C@H](OP(=O)(O)O)[C@@H]3O)[C@@H](O)[C@H]2O)c1 [NADP^+]
- spectrophotometric cofactor use (AaADH2): AaADH2 was the only enzyme also capable of using NADP^+

Compound: NC(=O)c1ccc[n+]([C@@H]2O[C@H](COP(=O)(O)OP(=O)(O)OC[C@H]3O[C@@H](n4cnc5c(N)ncnc54)[C@H](O)[C@@H]3O)[C@@H](O)[C@H]2O)c1 [NAD^+]
- X-ray crystal structure of binary complex (2.8 Å) (SrBDH1): the structure represents the binary complex (SrBDH1 ⋅ NAD^+ /high salt)

- stoichiometry N [1]: 4
- stoichiometry N [2]: 4
- stoichiometry N [3]: 4
Compound: Borneol-type dehydrogenase 1 from Salvia rosmarinus (enzyme)

- stoichiometry N [4]: 4
Compound: Borneol-type dehydrogenase 2 from Salvia rosmarinus (enzyme)

- stoichiometry N [5]: 4
Compound: Borneol-type dehydrogenase 3 from Salvia officinalis (enzyme)
